Experiments:
FGFR3 = FGFR3 (UniProt P22607); experiment: phosphorylation enrichment, bacterial display (enrichment ratio); higher = better substrate or ligand; peptides without Tyr show the background
EPHB2 = EPHB2 (UniProt P29323); experiment: as above
c-Abl (mouse) = experiment: as above
Fyn = Fyn (UniProt P06241); experiment: as above
AncSZ = experiment: as above
EPHB1 = EPHB1 (UniProt P54762); experiment: as above
FGFR1 = FGFR1 (UniProt P11362); experiment: as above
Fer (mouse) = experiment: as above
Fes = Fes (UniProt P07332); experiment: as above
Hck = Hck (UniProt P08631); experiment: as above
Jak2 = Jak2 (UniProt O60674); experiment: as above
MERTK = MERTK (UniProt Q12866); experiment: as above
c-Src = experiment: as above
SHP2-C SH2 = experiment: SH2 binding enrichment of the phosphorylated peptide, bacterial display (enrichment ratio); higher = better substrate or ligand; peptides without Tyr show the background
c-Src SH2 = experiment: as above
Grb2 SH2 = Grb2 SH2 (UniProt P62993); experiment: as above
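For SH2 binding enrichment of the phosphorylated peptide, bacterial display in this document: peptide library displayed on the E. coli surface as eCPX fusions, selected cells deep-sequenced, score is each peptide's frequency after selection divided by its frequency in the input.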
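For phosphorylation enrichment, bacterial display in this document: 11-residue human phosphosite peptides and single-mutation variants displayed on the E. coli surface, counted by deep sequencing, each peptide's frequency after selection divided by its frequency in the unselected input library; frequency after pTyr selection over input frequency; kinase dosed for 20-30% of maximal phosphorylation in three min.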

Fes, sequence (P07332 whole entry, looked up): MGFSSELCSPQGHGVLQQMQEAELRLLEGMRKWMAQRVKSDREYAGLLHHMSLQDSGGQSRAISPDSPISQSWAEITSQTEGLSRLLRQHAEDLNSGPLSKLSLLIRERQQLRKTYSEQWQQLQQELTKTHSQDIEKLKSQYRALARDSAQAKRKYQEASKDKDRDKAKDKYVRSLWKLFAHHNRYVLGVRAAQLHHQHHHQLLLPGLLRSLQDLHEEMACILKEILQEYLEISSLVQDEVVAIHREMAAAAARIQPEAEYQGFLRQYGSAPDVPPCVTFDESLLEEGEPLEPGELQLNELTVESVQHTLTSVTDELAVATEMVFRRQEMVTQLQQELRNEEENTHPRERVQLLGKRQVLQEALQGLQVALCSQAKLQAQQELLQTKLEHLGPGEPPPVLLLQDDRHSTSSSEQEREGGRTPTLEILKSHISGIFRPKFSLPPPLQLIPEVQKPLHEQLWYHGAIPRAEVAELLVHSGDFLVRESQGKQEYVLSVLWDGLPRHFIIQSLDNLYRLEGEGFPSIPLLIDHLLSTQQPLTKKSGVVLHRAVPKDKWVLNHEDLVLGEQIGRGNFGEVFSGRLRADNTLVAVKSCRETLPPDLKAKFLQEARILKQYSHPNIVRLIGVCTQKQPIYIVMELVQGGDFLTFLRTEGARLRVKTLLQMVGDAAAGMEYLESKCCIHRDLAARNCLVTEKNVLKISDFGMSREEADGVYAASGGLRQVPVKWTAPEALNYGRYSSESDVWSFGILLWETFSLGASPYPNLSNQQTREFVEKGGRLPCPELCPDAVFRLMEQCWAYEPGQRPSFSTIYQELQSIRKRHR
FGFR3, sequence (P22607 whole entry, looked up): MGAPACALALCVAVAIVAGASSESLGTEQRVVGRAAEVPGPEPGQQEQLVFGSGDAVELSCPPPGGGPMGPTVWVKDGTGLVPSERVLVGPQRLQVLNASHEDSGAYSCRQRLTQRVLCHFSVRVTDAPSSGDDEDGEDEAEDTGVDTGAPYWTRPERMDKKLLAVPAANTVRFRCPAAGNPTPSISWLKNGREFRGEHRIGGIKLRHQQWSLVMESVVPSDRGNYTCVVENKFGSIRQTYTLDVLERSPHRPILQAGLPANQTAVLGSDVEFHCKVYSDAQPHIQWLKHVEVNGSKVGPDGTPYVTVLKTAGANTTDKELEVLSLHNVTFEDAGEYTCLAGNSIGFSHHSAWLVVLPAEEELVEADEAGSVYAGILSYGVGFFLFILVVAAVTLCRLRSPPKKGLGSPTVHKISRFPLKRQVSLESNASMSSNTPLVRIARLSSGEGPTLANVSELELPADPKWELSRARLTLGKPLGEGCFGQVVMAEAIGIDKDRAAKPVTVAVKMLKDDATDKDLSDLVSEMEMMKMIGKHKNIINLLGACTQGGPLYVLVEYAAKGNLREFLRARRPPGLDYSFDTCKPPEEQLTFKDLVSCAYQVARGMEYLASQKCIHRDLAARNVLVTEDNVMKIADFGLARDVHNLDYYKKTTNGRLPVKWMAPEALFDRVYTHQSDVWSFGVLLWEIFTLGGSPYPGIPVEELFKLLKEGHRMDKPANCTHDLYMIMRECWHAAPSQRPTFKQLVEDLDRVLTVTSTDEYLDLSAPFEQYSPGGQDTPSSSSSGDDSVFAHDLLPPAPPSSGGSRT
Jak2, sequence (O60674 whole entry, looked up): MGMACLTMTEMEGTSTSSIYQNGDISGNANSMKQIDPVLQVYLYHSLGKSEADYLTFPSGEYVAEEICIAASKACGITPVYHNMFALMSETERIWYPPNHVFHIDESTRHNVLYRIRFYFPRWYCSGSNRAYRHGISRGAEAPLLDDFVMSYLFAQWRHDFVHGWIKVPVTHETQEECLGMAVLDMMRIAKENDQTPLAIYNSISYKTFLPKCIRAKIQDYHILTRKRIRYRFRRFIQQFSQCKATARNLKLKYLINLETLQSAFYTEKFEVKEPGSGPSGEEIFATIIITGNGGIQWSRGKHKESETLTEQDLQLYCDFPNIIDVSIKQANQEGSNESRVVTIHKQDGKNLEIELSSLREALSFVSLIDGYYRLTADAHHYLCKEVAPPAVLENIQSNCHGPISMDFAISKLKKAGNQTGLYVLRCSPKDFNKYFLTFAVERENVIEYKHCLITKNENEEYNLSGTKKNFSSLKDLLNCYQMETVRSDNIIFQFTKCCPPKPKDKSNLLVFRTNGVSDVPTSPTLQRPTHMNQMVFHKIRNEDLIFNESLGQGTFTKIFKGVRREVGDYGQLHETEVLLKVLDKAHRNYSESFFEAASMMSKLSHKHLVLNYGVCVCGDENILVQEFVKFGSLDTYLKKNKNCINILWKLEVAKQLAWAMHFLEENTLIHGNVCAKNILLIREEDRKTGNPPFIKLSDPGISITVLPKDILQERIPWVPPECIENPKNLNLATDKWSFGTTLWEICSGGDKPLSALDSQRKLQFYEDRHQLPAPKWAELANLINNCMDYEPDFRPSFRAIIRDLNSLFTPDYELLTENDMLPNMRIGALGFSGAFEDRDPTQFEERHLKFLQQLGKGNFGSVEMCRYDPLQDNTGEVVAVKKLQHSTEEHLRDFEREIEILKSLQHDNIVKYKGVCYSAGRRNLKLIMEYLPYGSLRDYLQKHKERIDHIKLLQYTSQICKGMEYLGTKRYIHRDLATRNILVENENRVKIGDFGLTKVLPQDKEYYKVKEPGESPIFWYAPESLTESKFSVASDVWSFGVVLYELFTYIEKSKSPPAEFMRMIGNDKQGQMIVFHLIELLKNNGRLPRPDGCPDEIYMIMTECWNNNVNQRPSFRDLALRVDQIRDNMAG
FGFR1, sequence (P11362 whole entry, looked up): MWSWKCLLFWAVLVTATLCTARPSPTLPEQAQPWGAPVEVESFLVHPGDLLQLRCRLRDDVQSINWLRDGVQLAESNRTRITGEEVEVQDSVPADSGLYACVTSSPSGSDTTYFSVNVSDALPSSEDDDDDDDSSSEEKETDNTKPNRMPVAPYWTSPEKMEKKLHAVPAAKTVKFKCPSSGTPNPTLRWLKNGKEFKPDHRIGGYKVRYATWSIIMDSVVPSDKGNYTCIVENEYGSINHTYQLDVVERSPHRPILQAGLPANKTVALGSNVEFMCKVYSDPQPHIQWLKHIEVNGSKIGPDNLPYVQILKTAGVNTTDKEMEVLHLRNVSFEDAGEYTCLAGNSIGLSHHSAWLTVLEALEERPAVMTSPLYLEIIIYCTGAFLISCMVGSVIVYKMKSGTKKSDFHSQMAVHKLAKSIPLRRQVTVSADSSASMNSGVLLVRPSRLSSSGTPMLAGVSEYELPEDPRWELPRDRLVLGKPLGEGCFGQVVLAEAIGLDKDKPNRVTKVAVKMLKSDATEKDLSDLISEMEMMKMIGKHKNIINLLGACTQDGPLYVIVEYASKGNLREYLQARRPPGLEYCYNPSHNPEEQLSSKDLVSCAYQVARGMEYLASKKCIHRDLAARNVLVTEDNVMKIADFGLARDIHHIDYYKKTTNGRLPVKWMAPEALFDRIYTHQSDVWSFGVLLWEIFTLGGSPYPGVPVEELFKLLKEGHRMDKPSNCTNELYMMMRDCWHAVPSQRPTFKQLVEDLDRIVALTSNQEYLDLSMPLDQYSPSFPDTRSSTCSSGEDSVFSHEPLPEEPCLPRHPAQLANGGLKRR
MERTK, sequence (Q12866 whole entry, looked up): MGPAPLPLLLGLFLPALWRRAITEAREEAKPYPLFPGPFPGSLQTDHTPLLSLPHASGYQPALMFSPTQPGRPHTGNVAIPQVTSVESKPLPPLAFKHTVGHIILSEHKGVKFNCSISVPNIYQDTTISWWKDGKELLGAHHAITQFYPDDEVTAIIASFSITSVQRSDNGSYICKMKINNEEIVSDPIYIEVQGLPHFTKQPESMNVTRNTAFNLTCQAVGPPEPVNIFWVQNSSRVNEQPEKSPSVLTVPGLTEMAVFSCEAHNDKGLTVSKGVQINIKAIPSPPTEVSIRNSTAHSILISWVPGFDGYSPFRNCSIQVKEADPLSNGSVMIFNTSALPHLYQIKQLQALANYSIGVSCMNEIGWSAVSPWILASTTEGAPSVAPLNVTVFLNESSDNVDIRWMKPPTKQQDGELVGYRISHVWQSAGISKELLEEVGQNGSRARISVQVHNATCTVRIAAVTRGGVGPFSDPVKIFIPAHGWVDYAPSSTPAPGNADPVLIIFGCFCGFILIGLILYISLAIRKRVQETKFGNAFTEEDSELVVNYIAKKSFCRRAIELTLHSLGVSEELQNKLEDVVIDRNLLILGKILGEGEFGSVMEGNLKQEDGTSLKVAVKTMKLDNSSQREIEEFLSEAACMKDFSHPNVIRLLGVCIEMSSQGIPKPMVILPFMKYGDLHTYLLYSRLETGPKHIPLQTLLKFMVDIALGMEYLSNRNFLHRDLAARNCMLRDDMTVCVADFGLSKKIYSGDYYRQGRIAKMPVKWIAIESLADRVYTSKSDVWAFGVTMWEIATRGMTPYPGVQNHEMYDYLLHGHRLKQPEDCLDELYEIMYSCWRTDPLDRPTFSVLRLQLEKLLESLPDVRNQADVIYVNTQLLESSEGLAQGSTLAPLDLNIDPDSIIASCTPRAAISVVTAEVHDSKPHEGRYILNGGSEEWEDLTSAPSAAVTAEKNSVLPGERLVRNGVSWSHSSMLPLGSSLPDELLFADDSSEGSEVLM

SH2 binding enrichment (SHP2-C SH2)	SH2 binding enrichment (c-Src SH2)	SH2 binding enrichment (Grb2 SH2)	Sequence	phosphorylation enrichment (FGFR3)	phosphorylation enrichment (EPHB2)	phosphorylation enrichment (c-Abl (mouse))	phosphorylation enrichment (Fyn)	phosphorylation enrichment (AncSZ)	phosphorylation enrichment (EPHB1)	phosphorylation enrichment (FGFR1)	phosphorylation enrichment (Fer (mouse))	phosphorylation enrichment (Fes)	phosphorylation enrichment (Hck)	phosphorylation enrichment (Jak2)	phosphorylation enrichment (MERTK)	phosphorylation enrichment (c-Src)
0.788	0.548	0.883	KIEGIYARDET [RPL35A_Y34_V33I]	0.619	0.497	0.493	1.07	0.887	0.536	0.585	0.491	0.919	1.12	0.663	0.413	1.09
0.744	0.523	0.84	KIRDWYQRQRP [KRT14_Y151]	0.419	0.463	0.637	0.4	0.621	0.405	0.415	0.45	0.635	0.38	0.553	0.446	0.502
1.19	0.691	1.08	KIVQDYLEKFF [MMP8_Y36_T32I_YF]	0.808	0.595	0.956	0.614	1.19	0.662	0.616	0.65	1.38	0.773	1.02	0.512	0.556
0.629	0.827	0.801	KKEGPYDVVVL [PARK7_Y67]	0.546	0.49	0.631	1.01	0.675	0.492	0.494	6.5	0.776	0.57	0.691	0.7	1.33
1.17	1.4	1.08	KLCHLYQDHMQ [WNT5A_Y86]	0.514	0.53	0.597	0.442	0.654	0.54	0.44	0.667	0.881	0.554	0.549	0.45	0.575
0.799	0.5	0.999	KLQQWYREPRS [GPI_Y17_H20P]	0.491	0.712	0.615	0.446	0.85	0.44	0.36	0.385	0.708	0.493	0.562	0.463	0.507
0.942	0.646	0.988	KNSSIYVVANI [VNN1_Y134_N131S]	0.873	0.64	1.07	0.567	1.23	0.681	0.528	0.622	1.38	0.662	1.31	0.751	0.691

Continued, sequence first:

Sequence	SH2 binding enrichment (SHP2-C SH2)	SH2 binding enrichment (c-Src SH2)	SH2 binding enrichment (Grb2 SH2)	phosphorylation enrichment (FGFR3)	phosphorylation enrichment (EPHB2)	phosphorylation enrichment (c-Abl (mouse))	phosphorylation enrichment (Fyn)	phosphorylation enrichment (AncSZ)	phosphorylation enrichment (EPHB1)	phosphorylation enrichment (FGFR1)	phosphorylation enrichment (Fer (mouse))	phosphorylation enrichment (Fes)	phosphorylation enrichment (Hck)	phosphorylation enrichment (Jak2)	phosphorylation enrichment (MERTK)	phosphorylation enrichment (c-Src)
KKHIPCREHKS [CSNK1G2_Y206_Y206C]	1.62	1.68	1.6	3.13	0.962	2.79	0.667	1.76	1.6	1.13	1.66	2.35	0.876	3.46	0.713	0.832
KKHIPHREHKS [CSNK1G2_Y206_Y206H]	1.87	1.8	2.15	4.9	1.71	4.03	1.01	2.89	2.61	1.97	2.81	4.05	1.72	5.87	1.42	1.53
KKRSVYIKVLF [CC2D2A_Y683_L684I]	0.646	0.548	1.1	0.515	0.396	0.644	0.392	0.99	0.411	0.457	0.451	0.954	0.363	0.798	0.335	0.304
KLADMYGGGKD [CDH1_Y876_E880K]	0.376	0.412	0.779	0.424	0.497	0.528	0.425	0.584	0.468	0.462	0.414	0.692	0.476	0.547	0.346	0.353
KLADVYQAELR [GFAP_Y116]	0.561	0.486	0.844	0.667	0.459	0.549	0.492	0.789	0.533	0.472	0.445	0.792	0.47	0.549	0.429	0.634
KLKPIYFHTQG [AR_Y916_V912L]	2.12	1.95	1.78	0.525	0.503	0.568	0.349	0.602	0.393	0.511	0.312	0.671	0.364	0.513	0.4	0.523
KLPDAYERFIL [G6PD_Y437_L440F]	0.801	1.1	0.933	0.661	0.562	0.745	0.578	0.985	0.568	0.476	1.22	1.06	0.569	0.892	0.538	0.713
KLSCSYSHWSA [C4BPA_Y470]	0.802	0.732	0.894	0.91	0.771	1.15	0.578	1.13	0.716	0.793	0.657	1.28	0.636	0.894	0.527	0.672
KLSFSYGWALQ [ALDOB_Y302_R304W]	0.67	0.558	0.921	0.936	0.764	1.19	0.503	1.52	0.844	0.676	0.591	1.8	0.509	1.72	0.559	0.585
KNCFKYYMSDD [ATRX_Y203]	0.785	0.835	0.828	1.01	0.701	0.961	0.54	1.4	0.794	0.547	0.624	1.37	0.595	1.16	0.496	0.572

From the supplement of paper PMC10065799, “High-throughput profiling of sequence recognition by tyrosine kinases and SH2 domains using bacterial peptide display” (eLife, 2023)
